Kd data for 3 molecules are collected here from US20250084169A1 (published 2025).

Common to all, as to experiment: SPR
(SPR reads the build-up and loss of mass on a sensor chip optically.)

The target in assay [1] is T1, recombinant human full-length CD20 (human, UniProt P11836 1-297).
T1 chain: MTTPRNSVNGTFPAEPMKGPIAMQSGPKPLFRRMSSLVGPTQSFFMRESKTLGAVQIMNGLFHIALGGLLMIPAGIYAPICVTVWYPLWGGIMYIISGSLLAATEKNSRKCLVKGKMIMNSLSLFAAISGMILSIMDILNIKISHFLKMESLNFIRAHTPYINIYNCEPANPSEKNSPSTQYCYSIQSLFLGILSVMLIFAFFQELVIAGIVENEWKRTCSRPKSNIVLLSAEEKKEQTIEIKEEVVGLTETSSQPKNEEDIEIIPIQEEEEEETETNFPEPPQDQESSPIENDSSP

Assay [2] deals with complement component C1q (UniProt P02745 23-245; P02746 28-253; P02747 29-245).
Assay [3] concerns the target T2, recombinant human Fc gamma RIIa (CD32a) 131R (human, UniProt P12318 36-218).
T2 chain: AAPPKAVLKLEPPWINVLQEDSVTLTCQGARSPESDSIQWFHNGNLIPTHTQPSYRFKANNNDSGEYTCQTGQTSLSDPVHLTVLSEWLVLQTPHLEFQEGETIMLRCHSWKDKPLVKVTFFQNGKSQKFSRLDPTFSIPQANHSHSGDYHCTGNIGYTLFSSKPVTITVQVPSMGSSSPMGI

Assay [4] addresses recombinant human Fc gamma RIIIa (CD16a) 158V (human, UniProt P08637 17-208).
Assay [5] has as its target T3, recombinant human Fc gamma RI (CD64) (human, UniProt P12314 16-288).
T3 chain: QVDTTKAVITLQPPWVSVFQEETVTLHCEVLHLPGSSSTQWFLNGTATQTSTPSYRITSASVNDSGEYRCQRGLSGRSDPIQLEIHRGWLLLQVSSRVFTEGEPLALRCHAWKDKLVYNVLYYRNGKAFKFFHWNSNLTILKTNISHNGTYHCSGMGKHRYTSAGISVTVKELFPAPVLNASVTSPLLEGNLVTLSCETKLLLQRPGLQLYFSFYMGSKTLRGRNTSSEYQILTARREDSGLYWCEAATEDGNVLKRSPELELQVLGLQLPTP

The target of assay [6] is T4, recombinant human CD19 (human, UniProt P15391 20-291).
T4 chain: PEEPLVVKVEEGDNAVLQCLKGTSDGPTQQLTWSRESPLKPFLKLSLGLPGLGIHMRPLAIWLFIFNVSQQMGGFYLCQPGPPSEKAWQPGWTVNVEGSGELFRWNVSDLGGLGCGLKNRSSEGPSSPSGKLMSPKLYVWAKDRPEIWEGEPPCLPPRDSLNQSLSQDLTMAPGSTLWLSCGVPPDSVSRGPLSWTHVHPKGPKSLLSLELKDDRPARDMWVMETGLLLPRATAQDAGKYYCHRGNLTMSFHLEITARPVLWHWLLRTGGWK

complement component C1q, sequence (P02745 23-245, chain 1 of 3): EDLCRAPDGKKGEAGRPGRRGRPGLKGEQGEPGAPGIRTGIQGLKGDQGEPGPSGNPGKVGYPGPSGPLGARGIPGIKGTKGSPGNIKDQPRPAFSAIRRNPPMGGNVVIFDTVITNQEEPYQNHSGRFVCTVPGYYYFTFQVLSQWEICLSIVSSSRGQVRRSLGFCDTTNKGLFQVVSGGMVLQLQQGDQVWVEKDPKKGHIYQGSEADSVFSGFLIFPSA
complement component C1q, sequence (P02746 28-253, chain 2 of 3): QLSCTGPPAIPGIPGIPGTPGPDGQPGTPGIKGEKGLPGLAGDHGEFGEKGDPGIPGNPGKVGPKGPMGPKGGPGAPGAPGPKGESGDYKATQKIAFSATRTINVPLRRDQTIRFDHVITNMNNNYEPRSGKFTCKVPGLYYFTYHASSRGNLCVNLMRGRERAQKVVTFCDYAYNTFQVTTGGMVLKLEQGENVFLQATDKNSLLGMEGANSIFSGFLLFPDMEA
complement component C1q, sequence (P02747 29-245, chain 3 of 3): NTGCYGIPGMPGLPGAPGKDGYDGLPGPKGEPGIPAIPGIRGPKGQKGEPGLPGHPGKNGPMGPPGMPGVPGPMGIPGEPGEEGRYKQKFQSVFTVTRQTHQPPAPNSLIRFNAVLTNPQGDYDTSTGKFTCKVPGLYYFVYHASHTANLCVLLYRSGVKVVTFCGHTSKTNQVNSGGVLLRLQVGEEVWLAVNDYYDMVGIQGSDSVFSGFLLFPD
recombinant human Fc gamma RIIIa (CD16a) 158V, sequence (P08637 17-208 F176V): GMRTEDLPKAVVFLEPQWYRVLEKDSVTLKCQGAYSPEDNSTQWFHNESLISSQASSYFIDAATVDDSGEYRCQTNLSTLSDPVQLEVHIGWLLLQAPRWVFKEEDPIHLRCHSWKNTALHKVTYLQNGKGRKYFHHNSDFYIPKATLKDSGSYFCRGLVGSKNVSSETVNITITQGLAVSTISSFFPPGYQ

B1: Rituximab (antibody)
VH: not shown
VL: QIVLSQSPAILSASPGEKVTMTCRASSSVSYIHWFQQKPGSSPKPWIYATSNLASGVPVRFSGSGSGTSYSLTISRVEAEDAATYYCQQWTSNPPTFGGGTKLEIKRTVAAPSVFIFPPSDEQLKSGTASVVCLLNNFYPREAKVQWKVDNALQSGNSQESVTEQDSKDSTYSLSSTLTLSKADYEKHKVYACEVTHQGLSSPVTKSFNRGEC
As for B1, the Kd (in general, the concentration at which binding is half-saturated) in assay [1] worked out at 0.596 nM.

B2: HB1905 (bispecific antibody)
light 1: DIQMTQTTSSLSASLGDRVTISCRASQDISKYLNWYQEKPDGTVKLLIYHTSRLHSGVPSRFSGSGSGTDYSLTISNLEQEDIATYFCQQGNTLPYTFGGGTKLEIKRTVAAPSVFIFPPSDEQLKSGTASVKCLLNNFYPREAKVQWKVDNALQSGNSQESVTEQDSKDSTYSLSSTLTLSKADYEKHKVYACEVTHQGLSSPVTKSFNRGEC
heavy 1: EVKLQESGPGLVAPSQSLSVTCTVSGVSLPDYGVSWIRKPPRKGLEWLGVIWGSETTYYNSALKSRLTIIKDNSKSQVFLKMSSLQTDDTAIYYCAKHYYYGGSYAMDYWGQGTSVTVSSASTKGPSVFPLAPSSKSTSGGTAALGCLVKDYFPEPVTVSWNSGALTSGVHTFPAVLQSSGLYSLESVVTVPSSSLGTQTYICNVNHKPSNTKVDKKVEPKSCTDWSPYADQSIKVRISLKSALGDKAYEWNDNEMYLFRSSVAYAMRQYFLKVKNQMILFGEEDVRVANLKPRISFNFFVTAPKNVSDIIPRTEVEKAIRMSRSRINDAFRLNDNSLEFLGIQPTLGPPNQPPVSTSTSPTRSMAPGAVHLPQPVSTRDKTHTCPPCPAPELLGGPSVFLFPPKPKDTLMISRTPEVTCVVVDVSHEDPEVKFNWYVDGVEVHNAKTKPREEQYNSTYRVVSVLTVLHQDWLNGKEYKCKVSNKALPAPIEKTISKAKGQPREPQVCTLPPSRDELTKNQVSLSCAVKGFYPSDIAVEWESNGQPENNYKTTPPVLDSDGSFFLVSKLTVDKSRWQQGNVFSCSVMHEALHNRFTQKSLSLSPG
light 2: QVQLQQPGAELVKPGASVKMSCKASGYTFTSYNMHWVKKTPGRGLEWIGAIYPGNGDTSYNQKFKGKATLTADKSSSTAYMQLSSLTSEDSAVYYCARSTYYGGDWYFNVWGAGTLVTVSSASVAAPSVFIFPPSDEQLKSGTASVECLLNNFYPREAKVQWKVDNALQSGNSQESVTEQDSKDSTYSLSSTLTLSKADYEKHKVYACEVTHQGLSSPVTKSFNRGEC
heavy 2: not shown
Regarding B2, the Kd in assay [2] is 115 nM; in assay [3], 380 nM; in assay [1], less than 0.18 nM; in assay [4], 493 nM; in assay [5] it was 0.234 nM; in assay [6] it was 4.8 nM.

B3: HB1906 (bispecific antibody)
light 1: DIQMTQTTSSLSASLGDRVTISCRASQDISKYLNWYQEKPDGTVKLLIYHTSRLHSGVPSRFSGSGSGTDYSLTISNLEQEDIATYFCQQGNTLPYTFGGGTKLEIKRTVAAPSVFIFPPSDEQLKSGTASVKCLLNNFYPREAKVQWKVDNALQSGNSQESVTEQDSKDSTYSLSSTLTLSKADYEKHKVYACEVTHQGLSSPVTKSFNRGEC
heavy 1: EVKLQESGPGLVAPSQSLSVTCTVSGVSLPDYGVSWIRKPPRKGLEWLGVIWGSETTYYNSALKSRLTIIKDNSKSQVFLKMSSLQTDDTAIYYCAKHYYYGGSYAMDYWGQGTSVTVSSASTKGPSVFPLAPSSKSTSGGTAALGCLVKDYFPEPVTVSWNSGALTSGVHTFPAVLQSSGLYSLESVVTVPSSSLGTQTYICNVNHKPSNTKVDKKVEPKSCTDWSPYADQSIKVRISLKSALGDKAYEWNDNEMYLFRSSVAYAMRQYFLKVKNQMILFGEEDVRVANLKPRISFNFFVTAPKNVSDIIPRTEVEKAIRMSRSRINDAFRLNDNSLEFLGIQPTLGPPNQPPVSTSTSPTRSMAPGAVHLPQPVSTRDKTHTCPPCPAPELLGGPSVFLFPPKPKDTLMISRTPEVTCVVVDVSHEDPEVKFNWYVDGVEVHNAKTKPREEQYNSTYRVVSVLTVLHQDWLNGKEYKCKVSNKALPAPIEKTISKAKGQPREPQVCTLPPSRDELTKNQVSLSCAVKGFYPSDIAVEWESNGQPENNYKTTPPVLDSDGSFFLVSKLTVDKSRWQQGNVFSCSVMHEALHNRFTQKSLSLSPG
light 2: QVQLQQPGAELVKPGASVKMSCKASGYTFTSYNMHWVKETPGRGLEWIGAIYPGNGDTSYNQKFKGKATLTADKSSSTAYMQLSSLTSEDSAVYYCARSTYYGGDWYFNVWGAGTLVTVSSASVAAPSVFIFPPSDEQLKSGTASVECLLNNFYPREAKVQWKVDNALQSGNSQESVTEQDSKDSTYSLSSTLTLSKADYEKHKVYACEVTHQGLSSPVTKSFNRGEC
heavy 2: not shown
B3: the Kd in assay [2] came out at 115 nM; in assay [3] it was 329 nM; in assay [1] it was 0.423 nM; in assay [4], 488 nM; in assay [5], 0.259 nM; in assay [6] it was 3.8 nM.
